# In patent US8759300B2, “Polypeptides and methods of use” (The Research Foundation for the State University of New York, priority 2007, dated 2014):
# Like-named read-outs stand apart in the source and are kept apart here.
# T1: VEGF (Homo sapiens, UniProt P15692)
# T1 sequence (P15692 27-191 isoform P15692-4): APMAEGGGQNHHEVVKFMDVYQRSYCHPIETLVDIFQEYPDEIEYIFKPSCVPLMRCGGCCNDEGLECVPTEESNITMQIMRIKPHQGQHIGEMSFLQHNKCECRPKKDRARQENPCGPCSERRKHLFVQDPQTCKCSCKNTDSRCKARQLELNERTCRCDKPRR
# What was measured:
# FN-null cells = experiment: FN-null cell survival on surfaces coated with FN domains; assay type: cell-based, mouse; details: for FN-null cell survival / proliferation: FNIII8-11 ± named FN domain, or named FN construct, PDGF-BB added 2 hrs after plating; for FN-null cell survival with PDGF at 3 days: surface precoated with 0.15 μM GST-tagged FNIII8-11 ± named FN domain, or named FN construct, PDGF-BB added 1 day after plating
# Method: To further investigate the response of cells to PDGF-BB bound to FN domains, we investigated the survival response of mouse fibroblasts null for FN (FN−/−), or “FN-null”. First we determined the response of FN-null cells to PDGF-BB in the absence of serum or other sources of exogenous FN. […] Next, FN-null cells were plated on tissue culture plastic surfaces precoated with 0.15 μM GST-tagged FNIII8-11±other FN domains known to have PDGF-BB binding activity and then PDGF-BB added 1 day later. […] Importantly, differential response of FN-null cells, plated on different FN domains, to PDGF-BB was not secondary to differences in attachment as judged by cell counts two hours after plating. The FNIII8-11 central cell binding domain was present in all circumstances.
# bFGF (FGF-2) = bFGF (FGF-2) (Homo sapiens, UniProt P09038); experiment: Equilibrium binding of bFGF (FGF-2) to FN and FN domains; details: method not restated (equilibrium and kinetic binding performed); read-out: KD, bFGF binding
# Sequence of bFGF (FGF-2) (P09038 143-288): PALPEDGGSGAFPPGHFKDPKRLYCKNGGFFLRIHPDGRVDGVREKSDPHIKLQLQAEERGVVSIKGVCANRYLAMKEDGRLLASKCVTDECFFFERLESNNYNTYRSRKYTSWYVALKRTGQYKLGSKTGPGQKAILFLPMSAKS
# Method: [The source words this procedure for another target and reports this target under the same test.] (§1) 20 μl of 50% v/v peptide-agarose beads are incubated with 125I-PDGF in 0.1 ml of binding buffer (DMEM+2% BSA) at room temperature for 2 hours with rotation. Beads are washed 6 times with DMEM. Bound PDGF-BB are released by the addition of 100 μl of 1M NaOH. The radioactivity bound to FN-beads are quantified in a γ-counter. Nonspecific binding are established from ^125I-PDGF binding to nonconjugated beads, then specific binding derived by subtraction of nonspecific binding from total binding. Binding constants (KD) and Bmax are determined from nonlinear regression of specific binding curves using Prism 4 from GraphPad Software, San Diego, Calif. “Scatchard plots” are derived from the KD and Bmax obtained with non linear regression analysis.
# TGF-β1 [1] = target: T2, TGF-β1 (Homo sapiens, UniProt P01137); experiment: Surface plasmon resonance, TGF-β1; assay type: binding
# T2 sequence (P01137 279-390 limits assumed): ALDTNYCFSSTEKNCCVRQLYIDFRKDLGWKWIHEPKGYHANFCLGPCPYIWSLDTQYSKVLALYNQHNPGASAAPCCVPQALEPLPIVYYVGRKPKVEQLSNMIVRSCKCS
# Method: [The source words this procedure for another target and reports this target under the same test.] (§2) In the Biacore2000 system, binding constants from kinetic data are determined by passing varying concentrations of FN peptides (analytes) over chip surfaces which are coupled with PDGF-BB (ligand), respectively. All kinetic experiments are carried out at 20° C. at a flow rate of 20 μl/min. For mass transport experiments, each analyte is injected at a fixed concentration and run at flow rates ranging from 5 to 75 μl/min. All analytes are injected over PDGF-BB ligand surfaces as well as over a control surface for 120 s, followed by 300 s of dissociation in running buffer. Regeneration of the sensor chip for subsequent injections is accomplished by pulse of 0.1% SDS. Mass transport experiments have detected little difference in response at different flow rates thus validating data from kinetic experiments. Sensorgrams are prepared and globally fitted using nonlinear least-squares analysis and numerical integration of the differential rate equations with the Biacore Bioevaluation software. Each sensogram generated using a control surface is substracted from the corresponding experimental sensorgrams, and the resulting curves are transformed to concentration units using the molecular mass of the injected species, the equivalence of 1000 resonance units (RU) per 1 ng/mm^2, and a matrix thickness of 100 nm. Each data set, which consists of a series of sensorgrams from injections of different concentration of analyte over the same surface, are analyzed using kinetic models from Biaevaluation software.
# TGF-β1 [2] = target: T2, TGF-β1; experiment: Equilibrium binding of TGF-β1 to FN, FN domains and peptides
# Method: [The source words this procedure for another target and reports this target under the same test.] as §1
# PDGF-BB [3] = target: T3, PDGF-BB (Homo sapiens, UniProt P01127); experiment: Equilibrium binding of 125I-PDGF-BB to FN, FN domains and peptides; details: for Kd: equilibrium binding
# T3 sequence (P01127 82-190 limits assumed): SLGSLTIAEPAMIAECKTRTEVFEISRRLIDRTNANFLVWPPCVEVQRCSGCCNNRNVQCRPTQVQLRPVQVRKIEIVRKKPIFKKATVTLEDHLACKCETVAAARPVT
# Method: as §1
# PDGF-BB [4] = target: T3, PDGF-BB; experiment: Surface plasmon resonance (Biacore), PDGF-BB; assay type: binding
# Method: as §2
# EGF = EGF (Homo sapiens, UniProt P01133); experiment: Binding of EGF to FN, FN domains and peptides
# Sequence of EGF (P01133 971-1023 limits assumed, species assumed): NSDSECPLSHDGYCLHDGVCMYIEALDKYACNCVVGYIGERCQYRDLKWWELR
# [5] = system: GFs (TGF-β1, PDGF-BB, VEGF, FGF-2); experiment: Binding of growth factors to FN domains, GFs reported together
# Method: as §1
# In the Biacore2000 system, binding constants from kinetic data are determined by passing varying concentrations of FN peptides (analytes) over chip surfaces which are coupled with PDGF-BB (ligand), respectively. All kinetic experiments are carried out at 20° C. at a flow rate of 20 μl/min. […] Mass transport experiments have detected little difference in response at different flow rates thus validating data from kinetic experiments. […] Each data set, which consists of a series of sensorgrams from injections of different concentration of analyte over the same surface, are analyzed using kinetic models from Biaevaluation software.
# FGF-2 = FGF-2 (Homo sapiens, UniProt P09038); experiment: Surface plasmon resonance, FGF-2; details: read-out: KD, FGF-2 binding
# Sequence of FGF-2 (P09038 143-288): as the sequence (P09038 143-288) above
# Method: [The source words this procedure for another target and reports this target under the same test.] as §2, with “Each sensogram generated using a control surface is substracted from the corresponding experimental sensorgrams, and the resulting curves are transformed to concentration units using the molecular mass of the injected species, the equivalence of 1000 resonance units (RU) per 1 ng/mm^2, and a matrix thickness of 100 nm.” left out
# [6] = system: GFs (TGF-β1, PDGF-BB, VEGF, FGF-2); experiment: Binding of growth factors to FN domains, GFs reported together; remark: listed apart in the source
# VEGF = target: T1, VEGF; experiment: Surface plasmon resonance, VEGF; assay type: binding; details: plasmon resonance; read-out: KD, VEGF binding
# [7] = method not restated, read-out: KD, TGF-β1 binding
# [8] = method not restated (equilibrium and kinetic binding performed)
# [9] = method not restated, read-out: KD, PDGF-BB binding
# [10] = plasmon resonance, kinetic binding
molecule,measurement,setting,value
"FNIII12-14: recombinant heparinII-binding domain of FN, type III repeats 12-14 (protein) MGSAIPAPTDLKFTQVTPTSLSAQWTPPNVQLTGYRVRVTPKEKTGPMKEINLAPDSSSVVVSGLMVATKYEVSVYALKDTLTSRPAQGVVTTLENVSPPRRARVTDATETTITISWRTKTETITGFQVDAVPANGQTPIQRTIKPDVRSYTITGLQPGTDYKIYLYTLNDNARSSPVVIDASTAIDAPSNLRFLATTPNSLLVSWQPPRARITGYIIKYEKPGSPPREVVPRPRPGVTEATITGLEPGTEYTIYVIALKNNQKSEPLIGRKKTTSHHHHHHC",FN-null cell survival / proliferation,FN-null cells,enhance survival
same,FN-null cell survival with PDGF at 3 days,FN-null cells,increased survival
same,Kd,bFGF (FGF-2),1.9 nM
same,Kd,TGF-β1 [1]; [7],7.6 nM
same,Kd,TGF-β1 [2]; [8],7.6 nM
same,Kd,PDGF-BB [3],35 nM
same,Kd,PDGF-BB [4]; [9],55 nM
IIICS: variably-spliced IIICS domain of FN (protein) MGSDELPQLVTLPHPNLHGPEILDVPSTVQKTPFVTHPGYDTGNGIQLPGTSGQQPSVGQQMIFEEHGFRRTTPPTTATPIRHRPRPYPPNVGEEIQIGHIPREDVDYHLYPHGPGLNPNASTTSHHHHHHC,"EGF binding, in words",EGF,failed to bind
same,FN-null cell survival / proliferation,FN-null cells,enhance survival
same,FN-null cell survival with PDGF at 3 days,FN-null cells,increased survival
same,Kd,TGF-β1 [2]; [8],74 nM
same,Kd,PDGF-BB [3],350 nM
"FNIII3-6: recombinant FN domain, type III repeats 3-6 (protein) MGSAPPDTTVDQVDDTSIVVRWSRPQAPITGYRIVYSPSVEGSSTELNLPETANSVTLSDLQPGVQYNITIYAVEENQESTPVVIQQETTGTPRSDTVPSPRDLQFVEVTDVKVTIMWTPPESAVTGYRVDVIPVNLPGEHGQRLPISRNTFAEVTGLSPGVTYYFKVFAVSHGRESKPLTAQQTTKLDAPTNLQFVNETDSTVLVRWTPPRAQITGYRLTVGLTRRGQPRQYNVGPSVSKYPLRNLQPASEYTVSLVAIKGNQESPKATGVFTTLQPGSSIPPYNTEVTETTIVITWTPAPRIGFKLGVRPSQGGEAPREVTSDSGSIVVSGLTPGVEYVYTIQVLRDGQERDAPIVNKVVTPLSTSHHHHHHC","FN-null cell survival / proliferation, summary statement","FN-null cells; cells plated on named FN construct, or on FNIII8-11 ± named domain",did not support cell survival
same,"Binding of the GFs tested, in words",[5],In no case did any GF bind
same,"PDGF-BB binding, in words",PDGF-BB [3]; equilibrium binding and/or plasmon resonance,did not
same,"PDGF-BB binding, in words",PDGF-BB [4]; surface resonance,no binding
FNIII12-15: heparin II binding domain of FN (protein) MGSTIPAPTDLKFTQVTPTSLSAQWTPPNVQLTGYRVRVTPKEKTGPMKEINLAPDSSSVVVSGLMVATKYEVSVYALKDTLTSRPAQGVVTTLENVSPPRRARVTDATETTITISWRTKTETITGFQVDAVPANGQTPIQRTIKPDVRSYTITGLQPGTDYKIYLYTLNDNARSSPVVIDASTAIDAPSNLRFLATTPNSLLVSWQPPRARITGYIIKYEKPGSPPREVVPRPRPGVTEATITGLEPGTEYTIYVIALKNNQKSEPLIGRKKTGQEALSQTTISWAPFQDTSEYIISCHPVGTDEEPLQFRVPGTSTSATLTGLTRGATYNVIVEALKDQQRHKVREEVVTVGNSVNEGTSHHHHHHC,Kd,bFGF (FGF-2),130 nM
same,Kd,TGF-β1 [1]; [7],16 nM
same,Kd,TGF-β1 [2]; [8],16 nM
same,Kd,PDGF-BB [3],6.8 nM
same,Kd,PDGF-BB [4]; [9],6.8 nM
same,Kd,FGF-2; method not restated,170 nM
"FNIII1-7: FN domain, type III repeats 1-7 (protein) MGSGPVEVFITETPSQPNSHPIQWNAPQPSHISKYILRWRPKNSVGRWKEATIPGHLNSYTIKGLKPGVVYEGQLISIQQYGHQEVTRFDFTTTSTSTPVTSNTVTGETTPFSPLVATSESVTEITASSFVVSWVSASDTVSGFRVEYELSEEGDEPQYLDLPSTATSVNIPDLLPGRKYIVNVYQISEDGEQSLILSTSQTTAPDAPPDTTVDQVDDTSIVVRWSRPQAPITGYRIVYSPSVEGSSTELNLPETANSVTLSDLQPGVQYNITIYAVEENQESTPVVIQQETTGTPRSDTVPSPRDLQFVEVTDVKVTIMWTPPESAVTGYRVDVIPVNLPGEHGQRLPISRNTFAEVTGLSPGVTYYFKVFAVSHGRESKPLTAQQTTKLDAPTNLQFVNETDSTVLVRWTPPRAQITGYRLTVGLTRRGQPRQYNVGPSVSKYPLRNLQPASEYTVSLVAIKGNQESPKATGVFTTLQPGSSIPPYNTEVTETTIVITWTPAPRIGFKLGVRPSQGGEAPREVTSDSGSIVVSGLTPGVEYVYTIQVLRDGQERDAPIVNKVVTPLSPPTNLHLEANPDTGVLTVSWERSTTPDITGYRITTTPTNGQQGNSLEEVVHADQSSCTFDNLSPGLEYNVSVYTVKDDKESVPISDTIIPETSHHHHHHC","Binding of the GFs tested, in words",[5],all four GFs bound
same,Kd,bFGF (FGF-2),4.1 nM
same,Kd,TGF-β1 [1]; [10],18 nM
same,Kd,TGF-β1 [2]; equilibrium binding,17 nM
same,Kd,PDGF-BB [3],75 nM
same,Kd,PDGF-BB [4]; [10],100 nM
FNIII12-V15: composite heparinII-binding and variably-spliced IIICS domains of FN (protein) MGSAIPAPTDLKFTQVTPTSLSAQWTPPNVQLTGYRVRVTPKEKTGPMKEINLAPDSSSVVVSGLMVATKYEVSVYALKDTLTSRPAQGVVTTLENVSPPRRARVTDATETTITISWRTKTETITGFQVDAVPANGQTPIQRTIKPDVRSYTITGLQPGTDYKIYLYTLNDNARSSPVVIDASTAIDAPSNLRFLATTPNSLLVSWQPPRARITGYIIKYEKPGSPPREVVPRPRPGVTEATITGLEPGTEYTIYVIALKNNQKSEPLIGRKKTDELPQLVTLPHPNLHGPEILDVPSTVQKTPFVTHPGYDTGNGIQLPGTSGQQPSVGQQMIFEEHGFRRTTPPTTATPIRHRPRPYPPNVGEEIQIGHIPREDVDYHLYPHGPGLNPNASTGQEALSQTTISWAPFQDTSEYIISCHPVGTDEEPLQFRVPGTSTSATLTGLTRGATYNVIVEALKDQQRHKVREEVVTVGNSVNEGTSHHHHHHC,GF binding with up to 2.5 M NaCl or pH lowered to about 2.0,[6],failed to demonstrate any diminution
same,FN-null cell survival / proliferation,FN-null cells,enhance survival
same,Kd,VEGF,0.6 nM
same,Kd,bFGF (FGF-2),37 nM
same,Kd,TGF-β1 [2]; equilibrium binding,97 nM
same,Kd,PDGF-BB [3],21 nM
same,Kd,PDGF-BB [4]; [10],17 nM
same,Kd,FGF-2; plasmon resonance,37 nM
"FNIII12-13: FN domain, type III repeats 12-13 (protein) MGSAIPAPTDLKFTQVTPTSLSAQWTPPNVQLTGYRVRVTPKEKTGPMKEINLAPDSSSVVVSGLMVATKYEVSVYALKDTLTSRPAQGVVTTLENVSPPRRARVTDATETTITISWRTKTETITGFQVDAVPANGQTPIQRTIKPDVRSYTITGLQPGTDYKIYLYTLNDNARSSPVVIDASTTSHHHHHHC",Kd,PDGF-BB [3],75 nM
